Experiment [1] deals with cholera toxin A2 CTA2 (Vibrio cholerae) (UniProt P01555). The experiment can be described thus: SPR. To be noted: cited from earlier work.
For experiment [2], the target named is cholera toxin A1 subunit (CTA1), reduced, free (UniProt P01555 19-212). Briefly: SPR. As to conditions: both partners purified.
Chain of cholera toxin A1 subunit (CTA1), reduced, free (P01555 19-212): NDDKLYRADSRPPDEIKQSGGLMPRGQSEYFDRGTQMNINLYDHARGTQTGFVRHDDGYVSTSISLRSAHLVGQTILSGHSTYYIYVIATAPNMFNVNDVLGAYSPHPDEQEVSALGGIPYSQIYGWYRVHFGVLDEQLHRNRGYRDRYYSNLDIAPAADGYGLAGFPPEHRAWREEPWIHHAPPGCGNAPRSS

The Kd is the concentration at which binding is half-saturated. In the case of “cholera toxin A1 CTA1 (from UniProt P01555)”, in experiment [1], the Kd was 53 nM.

B1: CTA2/CTB5 complex (complex)
chain 1: MSNTCDEKTQSLGVKFLDEYQSKVKRQIFSGYQSDIDTHNRIKDEL
chain 2: TPQNITDLCAEYHNTQIYTLNDKIFSYTESLAGKREMAIITFKNGAIFQVEVPGSQHIDSQKKAIERMKDTLRIAYLTEAKVEKLCVWNNKTPHAIAAISMAN
notes: copies: + 5
The term kon denotes a measure of how fast the partners come together. A lower kon goes with slower complex formation. In experiment [2], B1 came in with a kon of 521 M⁻¹ s⁻¹.

Values taken from PMC4516936 (Toxins, 2015).
